Molecular target: the molecule itself
Test: SEC; Superdex 200 HR 10/30, running buffer with 0.02 % Triton X-100, pH 7.0, 50 mM sodium phosphate, 0.10 M NaCl, 4 °C, 0.15 mL/min; column calibrated with protein standards; dimer peak run again after 5 days at 4 °C; fractions analysed by SDS-PAGE; (αβ)2 dimer to (αβ) monomers

B1: Hydrogenase-1 from E. coli, (αβ) heterodimer of large and small subunit (complex)
chain 1: MSTQYETQGYTINNAGRRLVVDPITRIEGHMRCEVNINDQNVITNAVSCGTMFRGLEIILQGRDPRDAWAFVERICGVCTGVHALASVYAIEDAIGIKVPDNANIIRNIMLATLWCHDHLVHFYQLAGMDWIDVLDALKADPRKTSELAQSLSSWPKSSPGYFFDVQNRLKKFVEGGQLGIFRNGYWGHPQYKLPPEANLMGFAHYLEALDFQREIVKIHAVFGGKNPHPNWIVGGMPCAINIDESGAVGAVNMERLNLVQSIITRTADFINNVMIPDALAIGQFNKPWSEIGTGLSDKCVLSYGAFPDIANDFGEKSLLMPGGAVINGDFNNVLPVDLVDPQQVQEFVDHAWYRYPNDQVGRHPFDGITDPWYNPGDVKGSDTNIQQLNEQERYSWIKAPRWRGNAMEVGPLARTLIAYHKGDAATVESVDRMMSALNLPLSGIQSTLGRILCRAHEAQWAAGKLQYFFDKLMTNLKNGNLATASTEKWEPATWPTECRGVGFTEAPRGALGHWAAIRDGKIDLYQCVVPTTWNASPRDPKGQIGAYEAALMNTKMAIPEQPLEILRTLHSFDPCLACSTH
chain 2: LENKPRIPVVWIHGLECTCCTESFIRSAHPLAKDVILSLISLDYDDTLMAAAGTQAEEVFEDIITQYNGKYILAVEGNPPLGEQGMFCISSGRPFIEKLKRAAAGASAIIAWGTCASWGCVQAARPNPTQATPIDKVITDKPIIKVPGCPPIPDVMSAIITYMVTFDRLPDVDRMGRPLMFYGQRIHDKCYRRAHFDAGEFVQSWDDDAARKGYCLYKMGCKGPTTYNACSSTRWNDGVSFPIQSGHGCLGCAENGFWDRGSFYSRVVDIPQMGTHSTADTVGLTALGVVAAAVGVHAVASAVDQRRRHNQQPTETEHQPGNEDKQA
notes: large (α) subunit of E. coli Hydrogenase-1, holds the [NiFe] active site; printed mass 64.6 kDa; small (β) subunit of E. coli Hydrogenase-1, holds the FeS clusters; printed mass 36.8 kDa; Purified by Ni-NTA, so one subunit should carry a His tag; Cytochrome b subunits are said to be normally lost during homogenisation; Two copies of this heterodimer form the (αβ)2 dimer; also called Hyd-1; Hyd-1 …
  stoichiometry N: 2
